These results are taken from patent US20260001928A1 (CORTERIA PHARMACEUTICALS, priority 2022, published 2026).

One assay addresses T1, CRF1R receptor (UniProt P34998 24-415, limits assumed).
T1 sequence (looked up): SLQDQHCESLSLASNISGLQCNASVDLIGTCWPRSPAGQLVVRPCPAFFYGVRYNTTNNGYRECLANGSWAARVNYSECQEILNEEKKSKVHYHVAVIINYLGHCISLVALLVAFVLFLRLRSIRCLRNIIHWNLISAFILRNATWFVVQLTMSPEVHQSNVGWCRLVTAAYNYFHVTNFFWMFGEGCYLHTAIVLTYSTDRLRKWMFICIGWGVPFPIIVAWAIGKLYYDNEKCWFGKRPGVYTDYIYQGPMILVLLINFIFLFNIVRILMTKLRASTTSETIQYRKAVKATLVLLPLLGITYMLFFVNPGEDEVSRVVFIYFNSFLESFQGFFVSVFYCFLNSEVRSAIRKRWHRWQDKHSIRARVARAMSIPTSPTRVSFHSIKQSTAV
As to the kind of experiment: cell-based or functional assay.

Assay [1] has as its target human corticotropin-releasing factor 2a (CRF2a receptor) (human), Q13324. Briefly: cell-based or functional assay.

*1 amine or outer side, *2 acyl side, *3 side chain or, on linkers, in order; H or OH if unused. Where no end group is shown, it is not given here. Side-chain parts run from the residue outwards. [ ]: non-standard residue; d: D form. The star is where a group is joined. C18 diacid = O=C(O)CCCCCCCCCCCCCCCCC(=O)*; C16 diacid = O=C(O)CCCCCCCCCCCCCCC(=O)*; γGlu = O=C(O)[C@H](CCC(=O)[*:2])N[*:1]; NMeI = CC[C@H](C)[C@H](NC)C(=O)O; Api = NC1(C(=O)O)CCNCC1; Abu = CC[C@H](N)C(=O)O; AEEA = NCCOCCOCC(=O)O

Chain of human corticotropin-releasing factor 2a (CRF2a receptor) (human), Q13324 (Q13324 20-411): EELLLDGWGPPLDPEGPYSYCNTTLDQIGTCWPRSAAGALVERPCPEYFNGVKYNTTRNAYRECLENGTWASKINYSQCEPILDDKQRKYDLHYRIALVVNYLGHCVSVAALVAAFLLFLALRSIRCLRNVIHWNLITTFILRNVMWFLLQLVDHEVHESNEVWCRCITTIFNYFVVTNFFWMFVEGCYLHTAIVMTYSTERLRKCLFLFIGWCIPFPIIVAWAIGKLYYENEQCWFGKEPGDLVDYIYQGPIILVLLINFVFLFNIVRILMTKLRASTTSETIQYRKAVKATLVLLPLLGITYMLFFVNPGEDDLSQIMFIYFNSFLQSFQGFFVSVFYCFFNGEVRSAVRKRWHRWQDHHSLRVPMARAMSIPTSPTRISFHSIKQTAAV

B1: SEQ ID NO 129 (peptide)
peptide: Ac-IVLSLD[dV]PIKLK([γGlu-C18 diacid])KILLEQEKQKKQREQAETN[Api]QILAQV-NH2
SMILES: CC[C@H](C)[C@H](NC(C)=O)C(=O)N[C@H](C(=O)N[C@@H](CC(C)C)C(=O)N[C@@H](CO)C(=O)N[C@@H](CC(C)C)C(=O)N[C@@H](CC(=O)O)C(=O)N[C@@H](C(=O)N1CCC[C@H]1C(=O)N[C@H](C(=O)N[C@@H](CCCCN)C(=O)N[C@@H](CC(C)C)C(=O)N[C@@H](CCCCNC(=O)CC[C@H](NC(=O)CCCCCCCCCCCCCCCCC(=O)O)C(=O)O)C(=O)N[C@@H](CCCCN)C(=O)N[C@H](C(=O)N[C@@H](CC(C)C)C(=O)N[C@@H](CC(C)C)C(=O)N[C@@H](CCC(=O)O)C(=O)N[C@@H](CCC(N)=O)C(=O)N[C@@H](CCC(=O)O)C(=O)N[C@@H](CCCCN)C(=O)N[C@@H](CCC(N)=O)C(=O)N[C@@H](CCCCN)C(=O)N[C@@H](CCCCN)C(=O)N[C@@H](CCC(N)=O)C(=O)N[C@@H](CCCNC(=N)N)C(=O)N[C@@H](CCC(=O)O)C(=O)N[C@@H](CCC(N)=O)C(=O)N[C@@H](C)C(=O)N[C@@H](CCC(=O)O)C(=O)N[C@H](C(=O)N[C@@H](CC(N)=O)C(=O)NC1(C(=O)N[C@@H](CCC(N)=O)C(=O)N[C@H](C(=O)N[C@@H](CC(C)C)C(=O)N[C@@H](C)C(=O)N[C@@H](CCC(N)=O)C(=O)N[C@H](C(N)=O)C(C)C)[C@@H](C)CC)CCNCC1)[C@@H](C)O)[C@@H](C)CC)[C@@H](C)CC)C(C)C)C(C)C
Broadly, the EC50 is the concentration that produces a half-maximal response. The low end stands for a more potent agent, the high end for a less potent agent. B1: in the assay with CRF1R receptor, the half-maximal effective concentration (EC50) turned out to be 236000 pM and the “Emax (% I)” value came out at 39%. Moreover, in assay [1], the EC50 [nM] (cAMP) was determined as 0.14 nM.

B2: SEQ ID NO 71 (peptide)
peptide: [NMeI]VLSLD[dV]PIKLK([γGlu-C16 diacid])KILLEQEKQKKQREQAETNEQILAQV-NH2
modifications: N-terminus assumed
SMILES: CC[C@H](C)[C@H](NC)C(=O)N[C@H](C(=O)N[C@@H](CC(C)C)C(=O)N[C@@H](CO)C(=O)N[C@@H](CC(C)C)C(=O)N[C@@H](CC(=O)O)C(=O)N[C@@H](C(=O)N1CCC[C@H]1C(=O)N[C@H](C(=O)N[C@@H](CCCCN)C(=O)N[C@@H](CC(C)C)C(=O)N[C@@H](CCCCNC(=O)CC[C@H](NC(=O)CCCCCCCCCCCCCCC(=O)O)C(=O)O)C(=O)N[C@@H](CCCCN)C(=O)N[C@H](C(=O)N[C@@H](CC(C)C)C(=O)N[C@@H](CC(C)C)C(=O)N[C@@H](CCC(=O)O)C(=O)N[C@@H](CCC(N)=O)C(=O)N[C@@H](CCC(=O)O)C(=O)N[C@@H](CCCCN)C(=O)N[C@@H](CCC(N)=O)C(=O)N[C@@H](CCCCN)C(=O)N[C@@H](CCCCN)C(=O)N[C@@H](CCC(N)=O)C(=O)N[C@@H](CCCNC(=N)N)C(=O)N[C@@H](CCC(=O)O)C(=O)N[C@@H](CCC(N)=O)C(=O)N[C@@H](C)C(=O)N[C@@H](CCC(=O)O)C(=O)N[C@H](C(=O)N[C@@H](CC(N)=O)C(=O)N[C@@H](CCC(=O)O)C(=O)N[C@@H](CCC(N)=O)C(=O)N[C@H](C(=O)N[C@@H](CC(C)C)C(=O)N[C@@H](C)C(=O)N[C@@H](CCC(N)=O)C(=O)N[C@H](C(N)=O)C(C)C)[C@@H](C)CC)[C@@H](C)O)[C@@H](C)CC)[C@@H](C)CC)C(C)C)C(C)C
In the case of B2, the “Emax (% I)” value in the assay with CRF1R receptor was -4%. In addition, in assay [1], the EC50 [nM] (cAMP) was 0.21 nM.

B3: SEQ ID NO 116 (peptide)
peptide: [NMeI]VLSLD[dV]PIKLK([AEEA-AEEA-γGlu-C18 diacid])KILLEQEKQKKQREQAETNEQILAQV-NH2
modifications: N-terminus assumed
SMILES: CC[C@H](C)[C@H](NC)C(=O)N[C@H](C(=O)N[C@@H](CC(C)C)C(=O)N[C@@H](CO)C(=O)N[C@@H](CC(C)C)C(=O)N[C@@H](CC(=O)O)C(=O)N[C@@H](C(=O)N1CCC[C@H]1C(=O)N[C@H](C(=O)N[C@@H](CCCCN)C(=O)N[C@@H](CC(C)C)C(=O)N[C@@H](CCCCNC(=O)COCCOCCNC(=O)COCCOCCNC(=O)CC[C@H](NC(=O)CCCCCCCCCCCCCCCCC(=O)O)C(=O)O)C(=O)N[C@@H](CCCCN)C(=O)N[C@H](C(=O)N[C@@H](CC(C)C)C(=O)N[C@@H](CC(C)C)C(=O)N[C@@H](CCC(=O)O)C(=O)N[C@@H](CCC(N)=O)C(=O)N[C@@H](CCC(=O)O)C(=O)N[C@@H](CCCCN)C(=O)N[C@@H](CCC(N)=O)C(=O)N[C@@H](CCCCN)C(=O)N[C@@H](CCCCN)C(=O)N[C@@H](CCC(N)=O)C(=O)N[C@@H](CCCNC(=N)N)C(=O)N[C@@H](CCC(=O)O)C(=O)N[C@@H](CCC(N)=O)C(=O)N[C@@H](C)C(=O)N[C@@H](CCC(=O)O)C(=O)N[C@H](C(=O)N[C@@H](CC(N)=O)C(=O)N[C@@H](CCC(=O)O)C(=O)N[C@@H](CCC(N)=O)C(=O)N[C@H](C(=O)N[C@@H](CC(C)C)C(=O)N[C@@H](C)C(=O)N[C@@H](CCC(N)=O)C(=O)N[C@H](C(N)=O)C(C)C)[C@@H](C)CC)[C@@H](C)O)[C@@H](C)CC)[C@@H](C)CC)C(C)C)C(C)C
For the molecule B3, in the assay with CRF1R receptor, the “Emax (% I)” value was found to be 0%. The molecule also returned an EC50 [nM] (cAMP) in assay [1] of 0.37 nM.

B4: SEQ ID NO 126 (peptide)
peptide: Ac-IVLSLD[dV]PIKLK([γGlu-C18 diacid])KILLEQEKQKKQREQAETNAQILAQV-NH2
SMILES: CC[C@H](C)[C@H](NC(C)=O)C(=O)N[C@H](C(=O)N[C@@H](CC(C)C)C(=O)N[C@@H](CO)C(=O)N[C@@H](CC(C)C)C(=O)N[C@@H](CC(=O)O)C(=O)N[C@@H](C(=O)N1CCC[C@H]1C(=O)N[C@H](C(=O)N[C@@H](CCCCN)C(=O)N[C@@H](CC(C)C)C(=O)N[C@@H](CCCCNC(=O)CC[C@H](NC(=O)CCCCCCCCCCCCCCCCC(=O)O)C(=O)O)C(=O)N[C@@H](CCCCN)C(=O)N[C@H](C(=O)N[C@@H](CC(C)C)C(=O)N[C@@H](CC(C)C)C(=O)N[C@@H](CCC(=O)O)C(=O)N[C@@H](CCC(N)=O)C(=O)N[C@@H](CCC(=O)O)C(=O)N[C@@H](CCCCN)C(=O)N[C@@H](CCC(N)=O)C(=O)N[C@@H](CCCCN)C(=O)N[C@@H](CCCCN)C(=O)N[C@@H](CCC(N)=O)C(=O)N[C@@H](CCCNC(=N)N)C(=O)N[C@@H](CCC(=O)O)C(=O)N[C@@H](CCC(N)=O)C(=O)N[C@@H](C)C(=O)N[C@@H](CCC(=O)O)C(=O)N[C@H](C(=O)N[C@@H](CC(N)=O)C(=O)N[C@@H](C)C(=O)N[C@@H](CCC(N)=O)C(=O)N[C@H](C(=O)N[C@@H](CC(C)C)C(=O)N[C@@H](C)C(=O)N[C@@H](CCC(N)=O)C(=O)N[C@H](C(N)=O)C(C)C)[C@@H](C)CC)[C@@H](C)O)[C@@H](C)CC)[C@@H](C)CC)C(C)C)C(C)C
Regarding B4, the “Emax (% I)” value with CRF1R receptor turned out to be 20%. In assay [1], this molecule yielded an EC50 [nM] (cAMP) of 0.05 nM.

B5: SEQ ID NO 72 (peptide)
peptide: [NMeI]VLSLD[dV]PIKLK([γGlu-C16 diacid])KILLEQEKQKKQREQAETN[Api]QILAQV-NH2
modifications: N-terminus assumed
SMILES: CC[C@H](C)[C@H](NC)C(=O)N[C@H](C(=O)N[C@@H](CC(C)C)C(=O)N[C@@H](CO)C(=O)N[C@@H](CC(C)C)C(=O)N[C@@H](CC(=O)O)C(=O)N[C@@H](C(=O)N1CCC[C@H]1C(=O)N[C@H](C(=O)N[C@@H](CCCCN)C(=O)N[C@@H](CC(C)C)C(=O)N[C@@H](CCCCNC(=O)CC[C@H](NC(=O)CCCCCCCCCCCCCCC(=O)O)C(=O)O)C(=O)N[C@@H](CCCCN)C(=O)N[C@H](C(=O)N[C@@H](CC(C)C)C(=O)N[C@@H](CC(C)C)C(=O)N[C@@H](CCC(=O)O)C(=O)N[C@@H](CCC(N)=O)C(=O)N[C@@H](CCC(=O)O)C(=O)N[C@@H](CCCCN)C(=O)N[C@@H](CCC(N)=O)C(=O)N[C@@H](CCCCN)C(=O)N[C@@H](CCCCN)C(=O)N[C@@H](CCC(N)=O)C(=O)N[C@@H](CCCNC(=N)N)C(=O)N[C@@H](CCC(=O)O)C(=O)N[C@@H](CCC(N)=O)C(=O)N[C@@H](C)C(=O)N[C@@H](CCC(=O)O)C(=O)N[C@H](C(=O)N[C@@H](CC(N)=O)C(=O)NC1(C(=O)N[C@@H](CCC(N)=O)C(=O)N[C@H](C(=O)N[C@@H](CC(C)C)C(=O)N[C@@H](C)C(=O)N[C@@H](CCC(N)=O)C(=O)N[C@H](C(N)=O)C(C)C)[C@@H](C)CC)CCNCC1)[C@@H](C)O)[C@@H](C)CC)[C@@H](C)CC)C(C)C)C(C)C
As for B5, the “Emax (% I)” value with CRF1R receptor is 18%. In assay [1], this molecule came in with an EC50 [nM] (cAMP) of 0.14 nM.

B6: SEQ ID NO 127 (peptide)
peptide: Ac-IVLSLD[dV]PIKLK([γGlu-C18 diacid])KILLEQEKQKKQREQAETN[Abu]QILAQV-NH2
SMILES: CC[C@H](NC(=O)[C@H](CC(N)=O)NC(=O)[C@@H](NC(=O)[C@H](CCC(=O)O)NC(=O)[C@H](C)NC(=O)[C@H](CCC(N)=O)NC(=O)[C@H](CCC(=O)O)NC(=O)[C@H](CCCNC(=N)N)NC(=O)[C@H](CCC(N)=O)NC(=O)[C@H](CCCCN)NC(=O)[C@H](CCCCN)NC(=O)[C@H](CCC(N)=O)NC(=O)[C@H](CCCCN)NC(=O)[C@H](CCC(=O)O)NC(=O)[C@H](CCC(N)=O)NC(=O)[C@H](CCC(=O)O)NC(=O)[C@H](CC(C)C)NC(=O)[C@H](CC(C)C)NC(=O)[C@@H](NC(=O)[C@H](CCCCN)NC(=O)[C@H](CCCCNC(=O)CC[C@H](NC(=O)CCCCCCCCCCCCCCCCC(=O)O)C(=O)O)NC(=O)[C@H](CC(C)C)NC(=O)[C@H](CCCCN)NC(=O)[C@@H](NC(=O)[C@@H]1CCCN1C(=O)[C@H](NC(=O)[C@H](CC(=O)O)NC(=O)[C@H](CC(C)C)NC(=O)[C@H](CO)NC(=O)[C@H](CC(C)C)NC(=O)[C@@H](NC(=O)[C@@H](NC(C)=O)[C@@H](C)CC)C(C)C)C(C)C)[C@@H](C)CC)[C@@H](C)CC)[C@@H](C)O)C(=O)N[C@@H](CCC(N)=O)C(=O)N[C@H](C(=O)N[C@@H](CC(C)C)C(=O)N[C@@H](C)C(=O)N[C@@H](CCC(N)=O)C(=O)N[C@H](C(N)=O)C(C)C)[C@@H](C)CC
As to B6, in the assay with CRF1R receptor, the “Emax (% I)” value is 11%. In addition, the EC50 [nM] (cAMP) in assay [1] turned out to be 0.08 nM.
